T1: amphyphisin SH3 (AMPH_HUMAN), P49418
T1 chain: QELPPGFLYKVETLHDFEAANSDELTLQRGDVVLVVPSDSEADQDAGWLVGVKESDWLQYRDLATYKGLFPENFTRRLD


What was measured:
[1] = target: T1, amphyphisin SH3 (AMPH_HUMAN), P49418; assay: SPOT array
[2] = target: endophilin SH3 (SH3G2_HUMAN), Q99962; assay: SPOT array

Row | normalised SPOT signal, Boehringer light units (BLU); mean over the file's lines of this peptide [1] | normalised SPOT signal, Boehringer light units (BLU); mean over the file's lines of this peptide [2] | Binder
1 | 1150 | 412 | KDPGPPRPHRPEAT [Q9Y6J0 1992-2005]
2 | 13 | 43.3 | IVKQIRRPKHVVVK [Q9Y4F1 101-114]
3 | 535 | 173 | ISSQIERPIRIVAL [O75643 1042-1055]
4 | 44.3 | 61.9 | KFWDLRRPYEPINS [Q16632 639-652]
5 | 21.8 | 228 | ANIRLKRPLKMEDP [P23378 97-110]
6 | 56.9 | 46.4 | IYVSLKRPSWMVDN [P42702 4-17]
7 | 39.1 | 46.8 | ITKSLRRPETSYRQ [P24821 757-770]
8 | 100 | 11600 | KAVLPLRPPWPLWG [AAH32349 3-17]
9 | 56.2 | 68.6 | KAISFLRPTKENVD [Q9Y4Z6 67-80]
10 | 929 | 730 | ISWGLRRPIRLQMQ [P50749 58-71]
11 | 36.3 | 18.8 | ITGTLKRPSLPEEE [O14514 1249-1262]
12 | 19.8 | 114 | IYSTLKRPQVETKI [Q14699 89-102]
13 | 35.5 | 516 | KGTIPKRPWLSATP [O15043 393-406]
14 | 21.4 | 86.2 | KFLDPSRPYKSTVS [Q15911 1537-1550]
15 | 51.2 | 260 | ALTSPGRPPMGFTT [BAC03837 101-115]
16 | 216 | 1960 | ISTPPSRPPQVKTA [Q01826 463-477]
17 | 27.4 | 147 | IVYSFRRPVWPAVV [Q9Y5I0 277-290]
18 | 66.7 | 86.6 | KDVLFIRPRKYIHS [Q92613 102-115]
19 | 149 | 200 | KIGFFKRPLKKKME [P56199 1137-1150]
20 | 258 | 20.1 | AMLSIPRPSKRFWM [Q92508 1232-1245]
21 | 56.3 | 276 | KEMVPAKPPKGLVG [Q99651 220-234]
22 | 59.9 | 82.6 | KGPGPQKPPTEADK [O15021 1933-1947]

Further lines, the binder ahead of its results:

Row | Binder | normalised SPOT signal, Boehringer light units (BLU); mean over the file's lines of this peptide [1] | normalised SPOT signal, Boehringer light units (BLU); mean over the file's lines of this peptide [2]
23 | KDEKPKRPEDESGR [Q9BZI7 330-343] | 30.5 | 314
24 | IYTELSRPSKRRMQ [Q9UJU8 278-291] | 85 | 60.3
25 | KAPPPTRPKRNDST [Q9C0I2 1104-1117] | 8570 | 3140
26 | KAGSISRPAKDESD [Q9H2U9 455-468] | 164 | 127
27 | AAPFPDRPPAHLVS [Q9P283 1-15] | 48.1 | 90.4
28 | ITVSPNKPPAVSPG [Q9UFP7 465-479] | 41.6 | 59.3
29 | KEQEPKRPHIKKPL [Q9UJU2 290-303] | 39 | 63.9
30 | KAGRPSKPPSPKQN [Q9P2M4 294-308] | 28 | 3150
31 | ITLTPVRPDRTPRP [Q9H5F9 434-447] | 6730 | 6160
32 | KIIPPKKPPTKVVP [Q8WZ42 11374-11388] | 39 | 132
33 | KGAPFRRPLYTNVP [Q9NQ11 1067-1080] | 36.3 | 167
34 | KDPGPPRPPAGATQ [Q9H7K4 46-60] | 43.9 | 229
35 | KASRPIKPPGPPIN [Q8WZ42 18722-18736] | 48.3 | 2120
36 | ALTLPRRPFLHSST [Q9H6Z2 106-119] | 1530 | 7630
37 | KAFPPPRPPPPNWE [Q9ULL8 1100-1114] | 146 | 13600
38 | KGRVLKRPPNSVVT [Q9HC49 341-354] | 33.1 | 25.2
39 | KGSKPVRPPAPGHG [Q9UH43 133-147] | 64.8 | 21200
40 | KFLDPARPYKSTVS [Q9C0A1 71-84] | 20.4 | 43.5
41 | KDLALLRPSKRQPP [Q9H6A9 265-278] | 66.4 | 226
42 | KANSPEKPPEAGAA [Q9UFC0 257-271] | 40.8 | 47.6

From paper PMC314469, “Protein Interaction Networks by Proteome Peptide Scanning” (PLoS Biology, 2004)
